Measured values published in US20230250178A1 (published 2023).

Key:
murine CCR8 [1] = target: T1, murine CCR8 (mouse, UniProt P56484 1-353); assay: FACS, murine iTregs
T1 construct: also called mCCR8; P56484_CCR8_MOUSE
T1 sequence: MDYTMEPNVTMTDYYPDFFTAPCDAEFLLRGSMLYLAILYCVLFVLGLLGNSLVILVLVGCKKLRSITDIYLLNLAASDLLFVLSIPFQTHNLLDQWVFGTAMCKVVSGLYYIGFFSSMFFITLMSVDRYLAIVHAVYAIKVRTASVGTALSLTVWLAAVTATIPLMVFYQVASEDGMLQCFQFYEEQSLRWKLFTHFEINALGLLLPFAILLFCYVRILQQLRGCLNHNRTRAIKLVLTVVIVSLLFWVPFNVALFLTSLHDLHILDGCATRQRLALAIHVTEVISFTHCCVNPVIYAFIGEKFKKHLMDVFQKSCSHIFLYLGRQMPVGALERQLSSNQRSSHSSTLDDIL

HSA alone = target: T2, HSA alone (human, UniProt P02768 25-609); assay: SPR, IgG captured
T2 construct: control analyte; also called human serum albumin

[2] = target: T3, TPP-19951, His6-tagged murine CCR8 TRD fused with human serum albumin (mouse; human, not fully specified); assay: SPR, IgG captured, TRD-HSA analyte
T3 construct: non-sulfated TRD; also called CCR8-HSA fusion protein (mouse); not shown: human serum albumin (HSA), C-terminal fusion partner
T3 chain: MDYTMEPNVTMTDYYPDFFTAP
Experimental: IgGs were captured using anti-human Fc IgGs covalently amine coupled to a CM5 sensor chip. […] The respective CCR8-HSA fusion protein was used as analyte with a concentration range of 1.56-200 nM in multicycle kinetics mode. Obtained sensorgrams were fitted to a 1:1 Langmuir binding model.

murine CCR8 [3] = target: T1, murine CCR8; assay: FACS, CHO-mCCR8
cynomolgus CCR8 = target: T4, cynomolgus CCR8 (cynomolgus, UniProt O97665 1-356 (rhesus entry)); assay: FACS
T4 construct: also called cynoCCR8; G7NYJ2_CCR8_MACFA

human CCR8 = target: T5, human CCR8 (human, UniProt P51685 1-355); assay: FACS
T5 construct: also called hCCR8; P51685_CCR8_HUMAN

T4 sequence (O97665 other isoform, or with tags, fused parts or gaps): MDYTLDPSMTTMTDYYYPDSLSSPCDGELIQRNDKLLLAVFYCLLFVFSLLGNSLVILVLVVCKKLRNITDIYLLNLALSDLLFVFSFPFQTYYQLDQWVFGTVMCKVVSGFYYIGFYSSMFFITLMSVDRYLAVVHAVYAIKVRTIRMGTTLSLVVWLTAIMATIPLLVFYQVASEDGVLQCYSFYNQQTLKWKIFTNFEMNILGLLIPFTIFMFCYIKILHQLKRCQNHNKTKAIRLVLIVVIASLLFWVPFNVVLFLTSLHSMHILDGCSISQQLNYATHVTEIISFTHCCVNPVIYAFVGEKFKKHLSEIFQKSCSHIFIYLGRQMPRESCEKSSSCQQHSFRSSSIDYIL

B1: TPP-14099 (antibody, human IgG1, lambda, V domains shown)
VH: EVQLLESGGGLVQPGGSLRLSCAASGFTFSDYGVHWVRQAPGKGLEWVSGVSWNGSRTHYADSVKGRFTISRDNSKNTLYLQMNSLRAEDTAVYYCVTRGAWGQGTLVTVSS
VL: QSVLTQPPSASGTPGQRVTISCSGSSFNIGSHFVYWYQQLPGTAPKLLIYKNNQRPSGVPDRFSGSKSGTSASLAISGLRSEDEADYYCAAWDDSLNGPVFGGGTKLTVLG
notes: anti-murine CCR8, human IgG1 lambda; also called 497A-M005-F02-hIgG1Lambda
Question: Which EC50 (murine CCR8 [1]) does the source give for B1 here?
Answer: 13.2 nM

Question: Does B1 bind (HSA alone)?
Answer: no binding

Question: And the Kd [2]?
Answer: 520 nM

Question: And the koff [2]?
Answer: 0.0011 s⁻¹

Question: And the kon [2]?
Answer: 2200 M⁻¹ s⁻¹

Question: And the EC50 (murine CCR8 [3])?
Answer: 3 nM

Question: Does B1 bind (cynomolgus CCR8)?
Answer: no binding

Question: Does B1 bind (human CCR8)?
Answer: no binding
